From patent publication US10428308B2, “Mesoderm and definitive endoderm cell populations” (Icahn School of Medicine at Mount Sinai, priority 2005, dated 2019)

Columns and labels:
CD4-HNF/GFP-T ES cells = experiment: Activin A / Wnt3a induction of ES derived primitive streak like cells in serum free culture, with pathway inhibitors; type: cell-based, mouse; settings: for development of GFP^+ CD4^+ cells with either inducer (activin or Wnt): DKK1 100 ng/ml or SB-431542 6 uM
Procedure: FIGS. 34A, 34B and 34C depict ES cells differentiated in serum free conditions with Activin A Wnt3a and/or inhibitors of these pathways. ES cells were cultured in serum free media for two days then trypsinized to obtain a single cell population. These cells were then reaggregated with the indicated conditions. At day six, the EBs were plated on matrigel coated dishes in serum free media.
Liu et. al. (1999) Nat. Genet. 22: 361-4. […] Activin stimulation leads to high levels of CD4 expression that persist after loss of GFP-Bry expression at day 6. […] Wnt does however stimulate expression of the posterior primitive streak markers HoxBI and Tbx6, while activin only induces Tbx6. […] At day 6, EBs that were stimulated with either activin or Wnt3a were plated on matrigel in serum free media to allow further development.
Considering that Wnt stimulation induces nodal and activin treatment induces Wnt3 (FIG. 34B), it is unknown whether activin/nodal signaling or Wnt Signaling alone can induce primitive streak formation or whether both factors are required together. CD4-HNF/GFP-T ES cells were induced with either activin or Wnt in conjunction with specific inhibitors of these pathways. DKK1 was used to inhibit Wnt signaling while the small molecule inhibitor SB-431542 (SB) was used to block Nodal/TGFβ signaling. DKK1 functions by binding the Wnt co-receptors, LRP5 and LRP6, which are essential for activation of the βcatenin signaling pathway. […] Inman et. al. (2002) MoI. Pharmacol. 62: 65-74. […] Therefore, to induce mesoderm and endoderm germ layers and their derivative tissues, both activin/Nodal and Wnt signals are required initially.

ALK4, 5, and 7 = settings: Inman et al. (2002); cited from earlier work
EBs (brachyury^+ cells) = experiment: BMP4 added to developing EBs in serum free cultures, GFP/Flk-1 expression; type: cell-based, mouse; settings: BMP4 20 ng/ml
Procedure: FIG. 8B depicts expression of brachyury and Flk-1 on cell populations generated from GFP+/Flk-1^− cells cultured for 20 hours under the indicated conditions.
To assess the role of serum in the development of brachyury^+ cells, EBs were differentiated the absence of serum. EBs did develop under these conditions, although they were somewhat smaller than those found in normal conditions. […] Significant numbers of GFP^+/Flk-1^− and GFP^+/Flk-1^+ cells did develop when serum was added to the cultures. […] As a first step in identifying factors that might play a role in this process, BMP4 (20 ng/ml) was added to the developing EBs in the serum free cultures. […] To determine if BMP4 could induce GFP^+/Flk-1^+ from GFP^+/Flk-1^− cells that were induced in the presence of serum, GFP^+/Flk-1^− cells were isolated from EBs differentiated for three days in the presence of serum. These cells were reaggregated in medium alone, in medium with serum or in medium with BMP4. […] As expected, the same population generated a large GFP^+/Flk-1^+ population when serum was added to the cultures. Consistent with the findings in the primary differentiation cultures, BMP4 was unable to induce the development of significant numbers of GFP^+/Flk-1^+ cells from the cultured GFP^+/Flk-1^− cells.

[1] = tested on: GFP^+ hCD4^med cells from CD4-HNF/GFP-T ES cells; experiment: Reaggregation of sorted GFP^+ hCD4^med cells in serum free media with DKK1 and/or activin; type: cell-based, mouse
Procedure: FIGS. 35A and 35B depict, the effects of DKK1 and activin on EB differentiation. EBs differentiated and sorted as in FIG. 32 for GFP^+ hCD4^med were allowed to reaggregate in serum replacement containing media alone or with the addition of human DKK1 100 ng/ml, activin 100 ng/ml, or both factors together. […] FIG. 35B depicts endodermal gene expression by RT PCR. The sorted populations were treated as indicated above for 2 days, then plated on matrigel in serum free media without factors added. Gene expression was analyzed an additional 5 days after plating.
Nodal, a key molecule involved in mesoderm/endoderm induction in vivo, signals through the same receptors as activin. It is also known that Nodal as well as inhibitors for Wnt signaling are expressed preferentially in or around the anterior primitive streak. Considering that the endoderm forms from the anterior primitive streak, it is possible that nodal/activin signaling in combination with inhibition of Wnt signals induces endoderm formation. To test this hypothesis, CD4-HNF/GFP-T ES cells were differentiated for 3.25 days in serum and GFP^+ hCD4^med cells were sorted and reaggregated in serum free media with no factor, DKK1 (Wnt inhibitor), activin, or activin and DKK1. The effect of these culture conditions on hCD4-HNF3β and GFP-Bry levels were analyzed by flow cytometry (FIG. 35A). With serum free media alone, hCD4 expression was lost after 1 day reaggregation. […] To further test this idea, sorted cells reaggregated for two days in the culture conditions above were washed with serum free media without factors and plated onto martrigel in serum free media. After 5 days, the cultures were harvested and gene expression determined by RT PCR. […] These culture conditions have the potential to allow the large scale production of endodermal derived tissues such as the pancreas and liver.

**Q.** Which results are given for `NC(=O)c1ccc(-c2nc(-c3ccc4c(c3)OCO4)c(-c3ccccn3)[nH]2)cc1` [SB-431542]?
**A.** development of GFP^+ CD4^+ cells with either inducer (activin or Wnt) (CD4-HNF/GFP-T ES cells): completely blocked; effect on BMP signaling (ALK4, 5, and 7): does not, however, block BMP signaling; receptor specificity (ALK4, 5, and 7): specific inhibitor of the receptors ALK4, 5, and 7

B1: BMP4: growth factor purchased from R&D systems (protein, UniProt P12644 293-408, looked up)
Bone morphogenetic protein 4: SPKHHSQRARKKNKNCRRHSLYVDFSDVGWNDWIVAPPGYQAFYCHGDCPFPLADHLNSTNHAIVQTLVNSVNSSIPKACCVPTELSAISMLYLDEYDKVVLKNYQEMVVEGCGCR
**Q.** For B1, which “development of GFP^+/Flk-1^+ population” value (EBs (brachyury^+ cells); serum free primary differentiation cultures) is on record?
**A.** The value was “did not support the development of the GFP^+/Flk-1^+ population”.

**Q.** What about the “induction of brachyury^+ cells” value (EBs (brachyury^+ cells); serum free, within 3 days of differentiation) of the same molecule?
**A.** The value was “induce a significant population of brachyury^+ cells”.

B2: Wnt3a: recombinant Wnt3a (protein, UniProt P56704 19-352, looked up)
Protein Wnt-3a: SYPIWWSLAVGPQYSSLGSQPILCASIPGLVPKQLRFCRNYVEIMPSVAEGIKIGIQECQHQFRGRRWNCTTVHDSLAIFGPVLDKATRESAFVHAIASAGVAFAVTRSCAEGTAAICGCSSRHQGSPGKGWKWGGCSEDIEFGGMVSREFADARENRPDARSAMNRHNNEAGRQAIASHMHLKCKCHGLSGSCEVKTCWWSQPDFRAIGDFLKDKYDSASEMVVEKHRESRGWVETLRPRYTYFKVPTERDLVYYEASPNFCEPNPETGSFGTRDRTCNVSSHGIDGCDLLCCGRGHNARAERRREKCRCVFHWCCYVSCQECTRVYDVHTCK
**Q.** With B2 as the molecule, how does the “endodermal gene expression (Alb, Aat, HNF4, Pdxl) by RT-PCR” value (CD4-HNF/GFP-T ES cells; day 6 EBs plated on matrigel a further 6 days, serum free) read?
**A.** Its value is “did not express any of these markers”.

**Q.** What about the “induction of GFP^+ CD4^+ cells” value (CD4-HNF/GFP-T ES cells; serum free, Activin A 25 ng/ml or Wnt3a 100 ng/ml) of the same molecule?
**A.** The value was “initially induce GFP^+ CD4^+ cells”.

B3: DKK1: Wnt signaling inhibitor binding the Wnt co-receptors LRP5 and LRP6 (protein, UniProt O94907 32-266, looked up)
Dickkopf-related protein 1: TLNSVLNSNAIKNLPPPLGGAAGHPGSAVSAAPGILYPGGNKYQTIDNYQPYPCAEDEECGTDEYCASPTRGGDAGVQICLACRKRRKRCMRHAMCCPGNYCKNGICVSSDQNHFRGEIEETITESFGNDHSTLDGYSRRTTLSSKMYHTKGQEGSVCLRSSDCASGLCCARHFWSKICKPVLKEGQVCTKHRRKGSHGLEIFQRCYCGEGLSCRIQKDHHQASNSSRLHTCQRH
**Q.** What does the source list for B3?
**A.** endoderm gene expression by RT PCR (pancreas, liver, intestine genes) ([1]; 2 days treatment, then 5 days on matrigel without factors): None of these genes were detected; hCD4 (HNF3β) level by flow cytometry ([1]; after 1 day reaggregation, DKK1 100 ng/ml, activin 100 ng/ml): allowed some cells to retain low levels of hCD4; development of GFP^+ CD4^+ cells with either inducer (activin or Wnt) (CD4-HNF/GFP-T ES cells): completely blocked
